The record followed here is patent publication US20150344540A1, “NOVEL GLP-1 RECEPTOR AGONISTS WITH CHOLESTEROL EFFLUX ACTIVITY” (NOVO NORDISK A/S, priority 2012, published 2015).

Where no end group is shown, it is not given here. [ ]: non-standard residue; d: D form. Aib = CC(C)(N)C(=O)O

B1: [Aib8,Glu23,Glu34,Lys35,Aib36,Lys37]-GLP-1-(7-37)-peptidyl-Glu-Phe-Leu amide (peptide)
peptide: H[Aib]EGTFTSDVSSYLEGEAAKEFIAWLVEK[Aib]KEFL-NH2
modifications: N-terminus assumed
SMILES: CC[C@H](C)[C@H](NC(=O)[C@H](Cc1ccccc1)NC(=O)[C@H](CCC(=O)O)NC(=O)[C@H](CCCCN)NC(=O)[C@H](C)NC(=O)[C@H](C)NC(=O)[C@H](CCC(=O)O)NC(=O)CNC(=O)[C@H](CCC(=O)O)NC(=O)[C@H](CC(C)C)NC(=O)[C@H](Cc1ccc(O)cc1)NC(=O)[C@H](CO)NC(=O)[C@H](CO)NC(=O)[C@@H](NC(=O)[C@H](CC(=O)O)NC(=O)[C@H](CO)NC(=O)[C@@H](NC(=O)[C@H](Cc1ccccc1)NC(=O)[C@@H](NC(=O)CNC(=O)[C@H](CCC(=O)O)NC(=O)C(C)(C)NC(=O)[C@@H](N)Cc1c[nH]cn1)[C@@H](C)O)[C@@H](C)O)C(C)C)C(=O)N[C@@H](C)C(=O)N[C@@H](Cc1c[nH]c2ccccc12)C(=O)N[C@@H](CC(C)C)C(=O)N[C@H](C(=O)N[C@@H](CCC(=O)O)C(=O)N[C@@H](CCCCN)C(=O)NC(C)(C)C(=O)N[C@@H](CCCCN)C(=O)N[C@@H](CCC(=O)O)C(=O)N[C@@H](Cc1ccccc1)C(=O)N[C@@H](CC(C)C)C(N)=O)C(C)C
B2: [Aib8,Glu23,Val25,Gln26,Glu34,Gln35,Aib36,Gln37]-GLP-1-(7-37)-peptidyl-Glu-Phe-Leu amide (peptide)
peptide: H[Aib]EGTFTSDVSSYLEGEAVQEFIAWLVEQ[Aib]QEFL-NH2
modifications: N-terminus assumed
SMILES: CC[C@H](C)[C@H](NC(=O)[C@H](Cc1ccccc1)NC(=O)[C@H](CCC(=O)O)NC(=O)[C@H](CCC(N)=O)NC(=O)[C@@H](NC(=O)[C@H](C)NC(=O)[C@H](CCC(=O)O)NC(=O)CNC(=O)[C@H](CCC(=O)O)NC(=O)[C@H](CC(C)C)NC(=O)[C@H](Cc1ccc(O)cc1)NC(=O)[C@H](CO)NC(=O)[C@H](CO)NC(=O)[C@@H](NC(=O)[C@H](CC(=O)O)NC(=O)[C@H](CO)NC(=O)[C@@H](NC(=O)[C@H](Cc1ccccc1)NC(=O)[C@@H](NC(=O)CNC(=O)[C@H](CCC(=O)O)NC(=O)C(C)(C)NC(=O)[C@@H](N)Cc1c[nH]cn1)[C@@H](C)O)[C@@H](C)O)C(C)C)C(C)C)C(=O)N[C@@H](C)C(=O)N[C@@H](Cc1c[nH]c2ccccc12)C(=O)N[C@@H](CC(C)C)C(=O)N[C@H](C(=O)N[C@@H](CCC(=O)O)C(=O)N[C@@H](CCC(N)=O)C(=O)NC(C)(C)C(=O)N[C@@H](CCC(N)=O)C(=O)N[C@@H](CCC(=O)O)C(=O)N[C@@H](Cc1ccccc1)C(=O)N[C@@H](CC(C)C)C(N)=O)C(C)C
B3: [Aib8,Glu22,Glu23,Val25,Glu34,Lys35,Val36,Lys37]-GLP-1-(7-37)-peptidyl-Glu-Leu-Leu amide (peptide)
peptide: H[Aib]EGTFTSDVSSYLEEEAVKEFIAWLVEKVKELL-NH2
modifications: N-terminus assumed
SMILES: CC[C@H](C)[C@H](NC(=O)[C@H](Cc1ccccc1)NC(=O)[C@H](CCC(=O)O)NC(=O)[C@H](CCCCN)NC(=O)[C@@H](NC(=O)[C@H](C)NC(=O)[C@H](CCC(=O)O)NC(=O)[C@H](CCC(=O)O)NC(=O)[C@H](CCC(=O)O)NC(=O)[C@H](CC(C)C)NC(=O)[C@H](Cc1ccc(O)cc1)NC(=O)[C@H](CO)NC(=O)[C@H](CO)NC(=O)[C@@H](NC(=O)[C@H](CC(=O)O)NC(=O)[C@H](CO)NC(=O)[C@@H](NC(=O)[C@H](Cc1ccccc1)NC(=O)[C@@H](NC(=O)CNC(=O)[C@H](CCC(=O)O)NC(=O)C(C)(C)NC(=O)[C@@H](N)Cc1c[nH]cn1)[C@@H](C)O)[C@@H](C)O)C(C)C)C(C)C)C(=O)N[C@@H](C)C(=O)N[C@@H](Cc1c[nH]c2ccccc12)C(=O)N[C@@H](CC(C)C)C(=O)N[C@H](C(=O)N[C@@H](CCC(=O)O)C(=O)N[C@@H](CCCCN)C(=O)N[C@H](C(=O)N[C@@H](CCCCN)C(=O)N[C@@H](CCC(=O)O)C(=O)N[C@@H](CC(C)C)C(=O)N[C@@H](CC(C)C)C(N)=O)C(C)C)C(C)C
B4: [Aib8,Pro22,Glu23,Val25,Glu34,Lys35,Aib36,Lys37]-GLP-1-(7-37)-peptidyl-Glu-Phe-Leu amide (peptide)
peptide: H[Aib]EGTFTSDVSSYLEPEAVKEFIAWLVEK[Aib]KEFL-NH2
modifications: N-terminus assumed
SMILES: CC[C@H](C)[C@H](NC(=O)[C@H](Cc1ccccc1)NC(=O)[C@H](CCC(=O)O)NC(=O)[C@H](CCCCN)NC(=O)[C@@H](NC(=O)[C@H](C)NC(=O)[C@H](CCC(=O)O)NC(=O)[C@@H]1CCCN1C(=O)[C@H](CCC(=O)O)NC(=O)[C@H](CC(C)C)NC(=O)[C@H](Cc1ccc(O)cc1)NC(=O)[C@H](CO)NC(=O)[C@H](CO)NC(=O)[C@@H](NC(=O)[C@H](CC(=O)O)NC(=O)[C@H](CO)NC(=O)[C@@H](NC(=O)[C@H](Cc1ccccc1)NC(=O)[C@@H](NC(=O)CNC(=O)[C@H](CCC(=O)O)NC(=O)C(C)(C)NC(=O)[C@@H](N)Cc1c[nH]cn1)[C@@H](C)O)[C@@H](C)O)C(C)C)C(C)C)C(=O)N[C@@H](C)C(=O)N[C@@H](Cc1c[nH]c2ccccc12)C(=O)N[C@@H](CC(C)C)C(=O)N[C@H](C(=O)N[C@@H](CCC(=O)O)C(=O)N[C@@H](CCCCN)C(=O)NC(C)(C)C(=O)N[C@@H](CCCCN)C(=O)N[C@@H](CCC(=O)O)C(=O)N[C@@H](Cc1ccccc1)C(=O)N[C@@H](CC(C)C)C(N)=O)C(C)C
B5: [Aib8,Val25,Gln27,Gln34,Lys35,Aib36,Lys37]-GLP-1-(7-37)-peptidyl-Gln-Phe-Leu amide (peptide)
peptide: H[Aib]EGTFTSDVSSYLEGQAVKQFIAWLVQK[Aib]KQFL-NH2
modifications: N-terminus assumed
SMILES: CC[C@H](C)[C@H](NC(=O)[C@H](Cc1ccccc1)NC(=O)[C@H](CCC(N)=O)NC(=O)[C@H](CCCCN)NC(=O)[C@@H](NC(=O)[C@H](C)NC(=O)[C@H](CCC(N)=O)NC(=O)CNC(=O)[C@H](CCC(=O)O)NC(=O)[C@H](CC(C)C)NC(=O)[C@H](Cc1ccc(O)cc1)NC(=O)[C@H](CO)NC(=O)[C@H](CO)NC(=O)[C@@H](NC(=O)[C@H](CC(=O)O)NC(=O)[C@H](CO)NC(=O)[C@@H](NC(=O)[C@H](Cc1ccccc1)NC(=O)[C@@H](NC(=O)CNC(=O)[C@H](CCC(=O)O)NC(=O)C(C)(C)NC(=O)[C@@H](N)Cc1c[nH]cn1)[C@@H](C)O)[C@@H](C)O)C(C)C)C(C)C)C(=O)N[C@@H](C)C(=O)N[C@@H](Cc1c[nH]c2ccccc12)C(=O)N[C@@H](CC(C)C)C(=O)N[C@H](C(=O)N[C@@H](CCC(N)=O)C(=O)N[C@@H](CCCCN)C(=O)NC(C)(C)C(=O)N[C@@H](CCCCN)C(=O)N[C@@H](CCC(N)=O)C(=O)N[C@@H](Cc1ccccc1)C(=O)N[C@@H](CC(C)C)C(N)=O)C(C)C
B6: [Aib8,Val25,Glu34,Lys35,Aib36,Lys37]-GLP-1-(7-37)-peptidyl-Glu-Phe-Leu amide (peptide)
peptide: H[Aib]EGTFTSDVSSYLEGQAVKEFIAWLVEK[Aib]KEFL-NH2
modifications: N-terminus assumed
SMILES: CC[C@H](C)[C@H](NC(=O)[C@H](Cc1ccccc1)NC(=O)[C@H](CCC(=O)O)NC(=O)[C@H](CCCCN)NC(=O)[C@@H](NC(=O)[C@H](C)NC(=O)[C@H](CCC(N)=O)NC(=O)CNC(=O)[C@H](CCC(=O)O)NC(=O)[C@H](CC(C)C)NC(=O)[C@H](Cc1ccc(O)cc1)NC(=O)[C@H](CO)NC(=O)[C@H](CO)NC(=O)[C@@H](NC(=O)[C@H](CC(=O)O)NC(=O)[C@H](CO)NC(=O)[C@@H](NC(=O)[C@H](Cc1ccccc1)NC(=O)[C@@H](NC(=O)CNC(=O)[C@H](CCC(=O)O)NC(=O)C(C)(C)NC(=O)[C@@H](N)Cc1c[nH]cn1)[C@@H](C)O)[C@@H](C)O)C(C)C)C(C)C)C(=O)N[C@@H](C)C(=O)N[C@@H](Cc1c[nH]c2ccccc12)C(=O)N[C@@H](CC(C)C)C(=O)N[C@H](C(=O)N[C@@H](CCC(=O)O)C(=O)N[C@@H](CCCCN)C(=O)NC(C)(C)C(=O)N[C@@H](CCCCN)C(=O)N[C@@H](CCC(=O)O)C(=O)N[C@@H](Cc1ccccc1)C(=O)N[C@@H](CC(C)C)C(N)=O)C(C)C
B7: [Aib8,Glu23,Lys24,Val25,Glu30,His31,Glu34,Lys35,Phe36,Lys37]-GLP-1-(7-37)-peptidyl-Glu-Phe-Phe amide (peptide)
peptide: H[Aib]EGTFTSDVSSYLEGEKVKEFIEHLVEKFKEFF-NH2
modifications: N-terminus assumed
SMILES: CC[C@H](C)[C@H](NC(=O)[C@H](Cc1ccccc1)NC(=O)[C@H](CCC(=O)O)NC(=O)[C@H](CCCCN)NC(=O)[C@@H](NC(=O)[C@H](CCCCN)NC(=O)[C@H](CCC(=O)O)NC(=O)CNC(=O)[C@H](CCC(=O)O)NC(=O)[C@H](CC(C)C)NC(=O)[C@H](Cc1ccc(O)cc1)NC(=O)[C@H](CO)NC(=O)[C@H](CO)NC(=O)[C@@H](NC(=O)[C@H](CC(=O)O)NC(=O)[C@H](CO)NC(=O)[C@@H](NC(=O)[C@H](Cc1ccccc1)NC(=O)[C@@H](NC(=O)CNC(=O)[C@H](CCC(=O)O)NC(=O)C(C)(C)NC(=O)[C@@H](N)Cc1c[nH]cn1)[C@@H](C)O)[C@@H](C)O)C(C)C)C(C)C)C(=O)N[C@@H](CCC(=O)O)C(=O)N[C@@H](Cc1c[nH]cn1)C(=O)N[C@@H](CC(C)C)C(=O)N[C@H](C(=O)N[C@@H](CCC(=O)O)C(=O)N[C@@H](CCCCN)C(=O)N[C@@H](Cc1ccccc1)C(=O)N[C@@H](CCCCN)C(=O)N[C@@H](CCC(=O)O)C(=O)N[C@@H](Cc1ccccc1)C(=O)N[C@@H](Cc1ccccc1)C(N)=O)C(C)C

In this experiment the target is human GLP-1 receptor (human, UniProt P43220). The experiment is described as follows: cell-based or functional assay.
In the case of HAEGTFTSDVSSYLEGQAAKEFIAWLVEKVKEFLE-NH2 [[Glu34,Lys35,Val36,Lys37]-GLP-1-(7-37)-peptidyl-Glu-Phe-Leu-Glu amide], the “CRE luciferase EC50, 0% HSA” value worked out at 0.114 nM and the “CRE luciferase EC50, 1% HSA” value turned out to be 0.028 nM.
Taken in the same sequence, the figures for HAEGTFTSDVSSYLEGQKAKEFIAWLVEGVKEFL-NH2 [[Lys24,Glu34,Val36,Lys37]-GLP-1-(7-37)-peptidyl-Glu-Phe-Leu amide] were 0.702 nM and 0.112 nM.
Taken in the same sequence, the figures for B1 were 0.163 nM and 0.143 nM.
The like results for B2 were, in that order, 0.156 nM and 0.04 nM.
Consider HAEGTFTSDVSSYLEGQAAKEFIAWLVEKVKEFL-NH2 [[Glu34,Lys35,Val36,Lys37]-GLP-1-(7-37)-peptidyl-Glu-Phe-Leu amide], for which the “CRE luciferase EC50, 0% HSA” value came out at 0.116 nM and the “CRE luciferase EC50, 1% HSA” value was 0.023 nM.
For B3, the “CRE luciferase EC50, 0% HSA” value is 0.439 nM and the “CRE luciferase EC50, 1% HSA” value worked out at 0.11 nM.
Taken in the same sequence, the figures for B4 were 7.53 nM and 0.936 nM.
The like results for B5 were, in that order, 0.601 nM and 0.229 nM.
Taken in the same sequence, the figures for B6 were 0.161 nM and 0.074 nM.
For the molecule HAEGTFTSDVSSYLEGQAAKEFIAWLVEKVKEHL-NH2 [[Glu34,Lys35,Val36,Lys37]-GLP-1-(7-37)-peptidyl-Glu-His-Leu amide], the “CRE luciferase EC50, 0% HSA” value came to 0.04 nM and the “CRE luciferase EC50, 1% HSA” value stood at 0.01 nM.
For B7, the “CRE luciferase EC50, 0% HSA” value was 5.42 nM and the “CRE luciferase EC50, 1% HSA” value worked out at 1.16 nM.
